# According to patent publication US20240400618A1:
# Biological target: pxEBN4-ACE2-AAA-His (human) (UniProt Q9BYF1)
# Note: test concentration or dose not given here.
row,Substance,"Response, shift in Wavelength (nm)"
1,pxENBCP17-FLS-CT-His-SBP (from UniProt P0DTC2 15-1213) (ligand),0.0382
2,pxENBCP19-FLS-CT-His-StrepTagII (from UniProt P0DTC2 15-1213) (ligand),0.042
3,pxENBCP20-FLS-CT-His-TST (from UniProt P0DTC2 15-1213) (ligand),0.0719

# Biological target: pxEBN4-ACE2-AAA-His (human) (UniProt Q9BYF1)
# Remark: another data set of the same source
row,Substance,"Response, shift in Wavelength (nm)"
1,pxEBNCP14-tPa-FLS-CT-His (from UniProt P0DTC2 16-1213) (ligand),0.529
2,pxEBNCP15-mIgGHC-FLS-CT-His (from UniProt P0DTC2 16-1213) (ligand),0.492
3,pxEBNCP16-IL2-FLS-CT-His (from UniProt P0DTC2 16-1213) (ligand),0.145
4,pxENB1-His-TEV-FLS-TN (from UniProt P0DTC2 14-1213) (ligand),0.0257
5,pxENB2-His-TEV-FLS-CT (from UniProt P0DTC2 14-1213) (ligand),0.344
6,pxENB5-his-TEV-FLS (from UniProt P0DTC2 14-1213) (ligand),0.185
7,pxENB8-FLS-TN-His (from UniProt P0DTC2 15-1213) (ligand),0.0591
8,pxENB9-FLS-CT-His (from UniProt P0DTC2 15-1213) (ligand),0.555
9,pxENB12-FLS-His (from UniProt P0DTC2 15-1213) (ligand),0.127
10,pxENB14-His-TEV-RBD (from UniProt P0DTC2 319-541) (ligand),0.304
11,pxENB17-RBD-His (from UniProt P0DTC2 319-541) (ligand),0.301
12,"pxENBEP17_TPA_Nuc(1-182)_Spike (15-1216, GAAS, PP)_10xHis (ligand)",0.232
13,pxENBEP18_Spike_Nuc(1-182)_10xHis (ligand),0.277
